Target: the molecule itself
Experiment: SEC

B1: Bacillus anthracis kynurenine formamidase KynB (enzyme)
chain: MKTSKWIDISQPLNNDIATWPGDTPFSYEVLWSKEESGSVNVGKLTMSIHTGTHIDAPFHFDNDGKKVLDLDIQVYVGPTRIIDVSNLESIGKKELEKFHLEGVERLLLRTSSHGKANEFPDIIPHLRADIAPFLSEKGIRLIGVDVPSVDPLDDKELAAHHQLFKHSIHILENVVLDHVADGDYELIALPLALSDADGSPVRAVIRPI
notes: also called BaKynB; KFase
- stoichiometry N: 2

Source: PMC4243253 (Biochemical Journal, 2014)
